CN115043940A (TIANCHEN BIOMEDICAL SUZHOU CO LTD, dated 2022)

Experiments:
食蟹猴血清白蛋白 = target: T1, 食蟹猴血清白蛋白 (cynomolgus monkey (食蟹猴), UniProt A2V9Z4 25-608, biotin-labelled (sites not given)); test: Octet BLI, biotinylated cynomolgus serum albumin on SA sensor, VHH in solution
T1 construct: Biotin-labelled and loaded on SA sensors in the Octet assay; also called albumin-macaca; alb-ma

[1] = target: T2, 人血清白蛋白(Human Serum Albumin,HSA) (human, UniProt P02768 25-609); test: Octet BLI, biotinylated HSA on SA sensor, VHH in solution
T2 construct: The only source named is native HSA (abcam ab205808), for immunisation; also called HSA蛋白; HSA抗原
T2 sequence (P02768 25-609 limits assumed): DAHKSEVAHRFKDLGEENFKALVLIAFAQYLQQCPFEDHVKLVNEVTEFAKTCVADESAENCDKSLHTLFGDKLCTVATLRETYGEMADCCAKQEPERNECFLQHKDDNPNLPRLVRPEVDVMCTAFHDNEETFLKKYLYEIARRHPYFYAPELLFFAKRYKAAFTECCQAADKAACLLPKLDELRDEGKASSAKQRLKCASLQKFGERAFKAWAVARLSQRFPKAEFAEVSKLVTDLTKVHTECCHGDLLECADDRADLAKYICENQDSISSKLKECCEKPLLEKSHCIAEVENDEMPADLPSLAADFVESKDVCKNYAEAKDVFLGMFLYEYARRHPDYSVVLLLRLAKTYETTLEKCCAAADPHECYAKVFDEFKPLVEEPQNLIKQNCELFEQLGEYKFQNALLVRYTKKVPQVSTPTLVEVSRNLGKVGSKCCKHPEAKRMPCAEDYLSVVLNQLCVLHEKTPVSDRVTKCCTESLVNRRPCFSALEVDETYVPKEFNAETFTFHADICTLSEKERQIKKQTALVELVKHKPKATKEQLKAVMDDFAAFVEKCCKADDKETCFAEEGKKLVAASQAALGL

T1 sequence (A2V9Z4 25-608 limits assumed): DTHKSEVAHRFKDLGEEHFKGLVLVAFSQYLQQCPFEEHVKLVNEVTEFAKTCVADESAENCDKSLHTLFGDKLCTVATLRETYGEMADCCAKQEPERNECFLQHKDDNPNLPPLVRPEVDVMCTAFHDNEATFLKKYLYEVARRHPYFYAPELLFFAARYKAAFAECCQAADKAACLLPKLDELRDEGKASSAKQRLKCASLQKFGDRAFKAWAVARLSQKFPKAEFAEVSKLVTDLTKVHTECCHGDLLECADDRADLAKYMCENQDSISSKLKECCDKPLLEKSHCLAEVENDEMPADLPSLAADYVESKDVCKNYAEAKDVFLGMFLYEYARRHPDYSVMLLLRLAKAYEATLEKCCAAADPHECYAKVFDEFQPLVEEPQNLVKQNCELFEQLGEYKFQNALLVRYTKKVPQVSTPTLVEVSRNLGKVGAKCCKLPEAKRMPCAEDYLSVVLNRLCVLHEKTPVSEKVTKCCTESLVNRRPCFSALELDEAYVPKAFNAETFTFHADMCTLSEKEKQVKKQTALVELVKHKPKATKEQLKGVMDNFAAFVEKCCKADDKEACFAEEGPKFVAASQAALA

Row | Binder | Kd (食蟹猴血清白蛋白) | koff (食蟹猴血清白蛋白) | kon (食蟹猴血清白蛋白) | Kd [1] | koff [1] | kon [1]
1 | 单域抗体LB22 (VHH, not shown: C-terminal 6xHis-tag and HA-tag) VHH: QVQLQESGGGVVQPGGSLRLSCTASGFTFSVYAMGWYRQAPGKDCELVGLITSTSDTRYADSVKGRFSISRDNAKKTVYLQMNRLKPEDTAVYYCMAGNSWGATVQAMCKSDYDYWGQGTQVTVSS | 0.708 nM | 6.47e-05 s⁻¹ | 91300 M⁻¹ s⁻¹ | 0.109 nM | 0.00014 s⁻¹ | 1.29e+06 M⁻¹ s⁻¹
2 | 单域抗体LB21 (VHH, not shown: C-terminal 6xHis-tag and HA-tag) VHH: QVQLVESGGGLVQPGGSLRLSCAASRIIFDVYNLAWFRQAPGKERELVASITSGLSTDYATTVKGRFIISRDNAKNTVYLQMNNLKPEDTAVYYCTANSRTTWYYWGQGTLVTVSS | 0.217 nM | 2.69e-05 s⁻¹ | 124000 M⁻¹ s⁻¹ | 1.24 nM | 0.000687 s⁻¹ | 554000 M⁻¹ s⁻¹
